Molecular target: HLA-A*02:01 (Homo sapiens, UniProt P04439, D140Y/D185E/D98H/E176V/E277Q/G131W/G231S/I119V/I121R/I166T/I218V/L300P/L318F/N151K/N90K/P208A/P217A/Q86G/Q94H/R138H/R169H/T345S)
Test: MHC binding assay (UV-ligand exchange, β2m ELISA, peptide exchange yield)
Details: MHC class I binding score; binding to HLA-A*02:01 ranged by peptide exchange yield (UV-ligand exchange, β2m ELISA)
How it was run: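 Binding is expressed as peptide exchange yield: stabilized MHC complexes were quantified by β2m ELISA, with a 450 nm TMB read-out on streptavidin-coated plates. Complexes came from UV-ligand exchange, where UV irradiation cleaves a photolabile peptide so the candidate peptide can load.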

Substance	Peptide exchange
478 (YLLHEKLNL; listed as Homo sapiens) [compound 478]	“+++” (≧50 = +++)
479 (SLFGNSGILENV; listed as Homo sapiens) [compound 479]	“+++” (≧50 = +++)
480 (ALLEDSCHYL; listed as Homo sapiens) [compound 480]	“+++” (≧50 = +++)
481 (GLIEDYEALL; listed as Homo sapiens) [compound 481]	“+++” (≧50 = +++)
484 (SLIEKVTQL; listed as Homo sapiens) [compound 484]	“+++” (≧50 = +++)
485 (NVPDSFNEV; listed as Homo sapiens) [compound 485]	“+++” (≧50 = +++)
486 (AVMESIQGV; listed as Homo sapiens) [compound 486]	“+++” (≧50 = +++)
487 (LLINSVFHV; listed as Homo sapiens) [compound 487]	“+++” (≧50 = +++)
488 (FLAEDPKVTL; listed as Homo sapiens) [compound 488]	“+++” (≧50 = +++)
490 (FLLQHVQEL; listed as Homo sapiens) [compound 490]	“+++” (≧50 = +++)
491 (GLNDRSDAV; listed as Homo sapiens) [compound 491]	“++” (≧20% = ++)
492 (SLFDGFADGLGV; listed as Homo sapiens) [compound 492]	“+++” (≧50 = +++)
493 (GLLGEKTQDLIGV; listed as Homo sapiens) [compound 493]	“+++” (≧50 = +++)
494 (ALQPEPIKV; listed as Homo sapiens) [compound 494]	“++” (≧20% = ++)
495 (FIFSEKPVFV; listed as Homo sapiens) [compound 495]	“+++” (≧50 = +++)
496 (FLVEKQPPQV; listed as Homo sapiens) [compound 496]	“+++” (≧50 = +++)
497 (GLLEKLTAI; listed as Homo sapiens) [compound 497]	“+++” (≧50 = +++)
498 (KLWTGGLDNTV; listed as Homo sapiens) [compound 498]	“+++” (≧50 = +++)
500 (SLMEDQVLQL; listed as Homo sapiens) [compound 500]	“+++” (≧50 = +++)
501 (LLDPNVKSIFV; listed as Homo sapiens) [compound 501]	“+++” (≧50 = +++)

Substance	Peptide exchange
502 (RLLAQVPGL; listed as Homo sapiens) [compound 502]	“+++” (≧50 = +++)
503 (SLNHFTHSV; listed as Homo sapiens) [compound 503]	“+++” (≧50 = +++)
504 (GLSDGNPSL; listed as Homo sapiens) [compound 504]	“++” (≧20% = ++)
505 (SLAPGDVVRQV; listed as Homo sapiens) [compound 505]	“++” (≧20% = ++)
506 (KLLGKVETA; listed as Homo sapiens) [compound 506]	“+++” (≧50 = +++)
507 (KLIDDQDISISL; listed as Homo sapiens) [compound 507]	“+++” (≧50 = +++)
508 (ILAQEQLVVGV; listed as Homo sapiens) [compound 508]	“+++” (≧50 = +++)
509 (FLFDTKPLIV; listed as Homo sapiens) [compound 509]	“+++” (≧50 = +++)
510 (KLYSVVSQL; listed as Homo sapiens) [compound 510]	“++” (≧20% = ++)
512 (SLSEIVPCL; listed as Homo sapiens) [compound 512]	“+++” (≧50 = +++)
513 (SLWPSPEQL; listed as Homo sapiens) [compound 513]	“++” (≧20% = ++)
514 (ILVDWLVQV; listed as Homo sapiens) [compound 514]	“+++” (≧50 = +++)
515 (LLQELVLFL; listed as Homo sapiens) [compound 515]	“+++” (≧50 = +++)
516 (AVGPASILKEV; listed as Homo sapiens) [compound 516]	“++” (≧20% = ++)
517 (LLMPIPEGLTL; listed as Homo sapiens) [compound 517]	“+++” (≧50 = +++)
519 (GLLHLTLLL; listed as Homo sapiens) [compound 519]	“+++” (≧50 = +++)
520 (LAVHPSGVAL; listed as Homo sapiens) [compound 520]	“+” (≧10% = +)
521 (MLLTKLPTI; listed as Homo sapiens) [compound 521]	“+++” (≧50 = +++)
522 (TLWYRSPEV; listed as Homo sapiens) [compound 522]	“++” (≧20% = ++)
523 (YQIPRTFTL; listed as Homo sapiens) [compound 523]	“++” (≧20% = ++)

Substance	Peptide exchange
524 (ALIENLTHQI; listed as Homo sapiens) [compound 524]	“++” (≧20% = ++)
525 (VLLEAGEGLVTI; listed as Homo sapiens) [compound 525]	“+++” (≧50 = +++)
526 (RLAEVGQYEQV; listed as Homo sapiens) [compound 526]	“++” (≧20% = ++)
527 (FLLEPGNLEV; listed as Homo sapiens) [compound 527]	“++++” (≧75% = ++++)
528 (SVAEGRALMSV; listed as Homo sapiens) [compound 528]	“+++” (≧50 = +++)
529 (LLADELITV; listed as Homo sapiens) [compound 529]	“+++” (≧50 = +++)
530 (VMYADIGGMDI; listed as Homo sapiens) [compound 530]	“+++” (≧50 = +++)
531 (YTLPIASSIRL; listed as Homo sapiens) [compound 531]	“+++” (≧50 = +++)
537 (TLAPGEVLRSV; listed as Homo sapiens) [compound 537]	“+++” (≧50 = +++)
538 (LLLAHIIAL; listed as Homo sapiens) [compound 538]	“++” (≧20% = ++)
539 (ALFDAQAQV; listed as Homo sapiens) [compound 539]	“+++” (≧50 = +++)
541 (SMLEPVPEL; listed as Homo sapiens) [compound 541]	“+++” (≧50 = +++)
542 (RVWDISTVSSV; listed as Homo sapiens) [compound 542]	“+++” (≧50 = +++)
543 (GLLPTPITQQASL; listed as Homo sapiens) [compound 543]	“+++” (≧50 = +++)
544 (LLWDVPAPSL; listed as Homo sapiens) [compound 544]	“+++” (≧50 = +++)
545 (LLADLLHNV; listed as Homo sapiens) [compound 545]	“+++” (≧50 = +++)
546 (VMIAGKVAVV; listed as Homo sapiens) [compound 546]	“+++” (≧50 = +++)
547 (TLDITPHTV; listed as Homo sapiens) [compound 547]	“+++” (≧50 = +++)
